{
  "source": "the RNAGym collection of RNA variant scans (doi:10.1021/acssynbio.7b00057)",
  "parents": {"B1": {"name": "Pistol ribozyme (parent)", "chain": "GGGUCGUUGUUCCAUAAUCGCGUGGAUAUGGCACGCAAGUUUCUACCGGGCACCGUAAAUGUCCGACUGGAGCCGUUCGGGCGGCUAUAAACAGACCUCAGGCCCGAAGCGUGGCGGCACCUGCCGCCGGUGGUAAAAAAGAUCGGAAGAGCACACGUCU"}},
  "data": [
    {"variants_of": "B1", "test": "aptazyme ON/OFF ratio, guanine; higher = stronger switching; co-transcriptional cleavage with and without guanine", "values": [
      {"variant": "GGGUCGAUGUCUGAUAAUCGCGUGGAUAUGGCACGCAAGUUUCUACCGGGCACCGUAAAUGUCCGACUGGAGCCGUUCGGGCGGCUAUAAACAGACCUCAGGCCCGAAGCGUGGCGGCACCUGCCGCCGGUGGUAAAAAAGAUCGGAAGAGCACACGUCU", "aptazyme ON/OFF ratio": 1.38},
      {"variant": "GGGUCGAUGUCUAAUAAUCGCGUGGAUAUGGCACGCAAGUUUCUACCGGGCACCGUAAAUGUCCGACUGGAGCCGUUCGGGCGGCUAUAAACAGACCUCAGGCCCGAAGCGUGGCGGCACCUGCCGCCGGUGGUAAAAAAGAUCGGAAGAGCACACGUCU", "aptazyme ON/OFF ratio": 1.27},
      {"variant": "GGGUCGAUGUCUUAUAAUCGCGUGGAUAUGGCACGCAAGUUUCUACCGGGCACCGUAAAUGUCCGACUGGAGCCGUUCGGGCGGCUAUAAACAGACCUCAGGCCCGAAGCGUGGCGGCACCUGCCGCCGGUGGUAAAAAAGAUCGGAAGAGCACACGUCU", "aptazyme ON/OFF ratio": 1.38},
      {"variant": "GGGUCGAUGUCCCAUAAUCGCGUGGAUAUGGCACGCAAGUUUCUACCGGGCACCGUAAAUGUCCGACUGGAGCCGUUCGGGCGGCUAUAAACAGACCUCAGGCCCGAAGCGUGGCGGCACCUGCCGCCGGUGGUAAAAAAGAUCGGAAGAGCACACGUCU", "aptazyme ON/OFF ratio": 1.29},
      {"variant": "GGGUCGAUGUACCAUAAUCGCGUGGAUAUGGCACGCAAGUUUCUACCGGGCACCGUAAAUGUCCGACUGGAGCCGUUCGGGCGGCUAUAAACAGACCUCAGGCCCGAAGCGUGGCGGCACCUGCCGCCGGUGGUAAAAAAGAUCGGAAGAGCACACGUCU", "aptazyme ON/OFF ratio": 1.24},
      {"variant": "GGGUCGAUGUAAGAUAAUCGCGUGGAUAUGGCACGCAAGUUUCUACCGGGCACCGUAAAUGUCCGACUGGAGCCGUUCGGGCGGCUAUAAACAGACCUCAGGCCCGAAGCGUGGCGGCACCUGCCGCCGGUGGUAAAAAAGAUCGGAAGAGCACACGUCU", "aptazyme ON/OFF ratio": 1.26},
      {"variant": "GGGUCGAUGUAAUAUAAUCGCGUGGAUAUGGCACGCAAGUUUCUACCGGGCACCGUAAAUGUCCGACUGGAGCCGUUCGGGCGGCUAUAAACAGACCUCAGGCCCGAAGCGUGGCGGCACCUGCCGCCGGUGGUAAAAAAGAUCGGAAGAGCACACGUCU", "aptazyme ON/OFF ratio": 1.41},
      {"variant": "GGGUCGAUGUAAAAUAAUCGCGUGGAUAUGGCACGCAAGUUUCUACCGGGCACCGUAAAUGUCCGACUGGAGCCGUUCGGGCGGCUAUAAACAGACCUCAGGCCCGAAGCGUGGCGGCACCUGCCGCCGGUGGUAAAAAAGAUCGGAAGAGCACACGUCU", "aptazyme ON/OFF ratio": 1.3},
      {"variant": "GGGUCGAUGGGUAAUAAUCGCGUGGAUAUGGCACGCAAGUUUCUACCGGGCACCGUAAAUGUCCGACUGGAGCCGUUCGGGCGGCUAUAAACAGACCUCAGGCCCGAAGCGUGGCGGCACCUGCCGCCGGUGGUAAAAAAGAUCGGAAGAGCACACGUCU", "aptazyme ON/OFF ratio": 1.33},
      {"variant": "GGGUCGAUGGGUGAUAAUCGCGUGGAUAUGGCACGCAAGUUUCUACCGGGCACCGUAAAUGUCCGACUGGAGCCGUUCGGGCGGCUAUAAACAGACCUCAGGCCCGAAGCGUGGCGGCACCUGCCGCCGGUGGUAAAAAAGAUCGGAAGAGCACACGUCU", "aptazyme ON/OFF ratio": 1.23},
      {"variant": "GGGUCGAUGGGUUAUAAUCGCGUGGAUAUGGCACGCAAGUUUCUACCGGGCACCGUAAAUGUCCGACUGGAGCCGUUCGGGCGGCUAUAAACAGACCUCAGGCCCGAAGCGUGGCGGCACCUGCCGCCGGUGGUAAAAAAGAUCGGAAGAGCACACGUCU", "aptazyme ON/OFF ratio": 1.2},
      {"variant": "GGGUCGAUGUAGAAUAAUCGCGUGGAUAUGGCACGCAAGUUUCUACCGGGCACCGUAAAUGUCCGACUGGAGCCGUUCGGGCGGCUAUAAACAGACCUCAGGCCCGAAGCGUGGCGGCACCUGCCGCCGGUGGUAAAAAAGAUCGGAAGAGCACACGUCU", "aptazyme ON/OFF ratio": 1.08},
      {"variant": "GGGUCGAUGUAGUAUAAUCGCGUGGAUAUGGCACGCAAGUUUCUACCGGGCACCGUAAAUGUCCGACUGGAGCCGUUCGGGCGGCUAUAAACAGACCUCAGGCCCGAAGCGUGGCGGCACCUGCCGCCGGUGGUAAAAAAGAUCGGAAGAGCACACGUCU", "aptazyme ON/OFF ratio": 1.24},
      {"variant": "GGGUCGAUGUAGGAUAAUCGCGUGGAUAUGGCACGCAAGUUUCUACCGGGCACCGUAAAUGUCCGACUGGAGCCGUUCGGGCGGCUAUAAACAGACCUCAGGCCCGAAGCGUGGCGGCACCUGCCGCCGGUGGUAAAAAAGAUCGGAAGAGCACACGUCU", "aptazyme ON/OFF ratio": 1.14},
      {"variant": "GGGUCGAUGUACUAUAAUCGCGUGGAUAUGGCACGCAAGUUUCUACCGGGCACCGUAAAUGUCCGACUGGAGCCGUUCGGGCGGCUAUAAACAGACCUCAGGCCCGAAGCGUGGCGGCACCUGCCGCCGGUGGUAAAAAAGAUCGGAAGAGCACACGUCU", "aptazyme ON/OFF ratio": 1.13},
      {"variant": "GGGUCGAUGUACAAUAAUCGCGUGGAUAUGGCACGCAAGUUUCUACCGGGCACCGUAAAUGUCCGACUGGAGCCGUUCGGGCGGCUAUAAACAGACCUCAGGCCCGAAGCGUGGCGGCACCUGCCGCCGGUGGUAAAAAAGAUCGGAAGAGCACACGUCU", "aptazyme ON/OFF ratio": 1.13},
      {"variant": "GGGUCGAUGUACGAUAAUCGCGUGGAUAUGGCACGCAAGUUUCUACCGGGCACCGUAAAUGUCCGACUGGAGCCGUUCGGGCGGCUAUAAACAGACCUCAGGCCCGAAGCGUGGCGGCACCUGCCGCCGGUGGUAAAAAAGAUCGGAAGAGCACACGUCU", "aptazyme ON/OFF ratio": 1.16},
      {"variant": "GGGUCGAUGUCAGAUAAUCGCGUGGAUAUGGCACGCAAGUUUCUACCGGGCACCGUAAAUGUCCGACUGGAGCCGUUCGGGCGGCUAUAAACAGACCUCAGGCCCGAAGCGUGGCGGCACCUGCCGCCGGUGGUAAAAAAGAUCGGAAGAGCACACGUCU", "aptazyme ON/OFF ratio": 1.22},
      {"variant": "GGGUCGAUGUCAUAUAAUCGCGUGGAUAUGGCACGCAAGUUUCUACCGGGCACCGUAAAUGUCCGACUGGAGCCGUUCGGGCGGCUAUAAACAGACCUCAGGCCCGAAGCGUGGCGGCACCUGCCGCCGGUGGUAAAAAAGAUCGGAAGAGCACACGUCU", "aptazyme ON/OFF ratio": 1.19},
      {"variant": "GGGUCGAUGUCAAAUAAUCGCGUGGAUAUGGCACGCAAGUUUCUACCGGGCACCGUAAAUGUCCGACUGGAGCCGUUCGGGCGGCUAUAAACAGACCUCAGGCCCGAAGCGUGGCGGCACCUGCCGCCGGUGGUAAAAAAGAUCGGAAGAGCACACGUCU", "aptazyme ON/OFF ratio": 1.35},
      {"variant": "GGGUCGAUGUAUAAUAAUCGCGUGGAUAUGGCACGCAAGUUUCUACCGGGCACCGUAAAUGUCCGACUGGAGCCGUUCGGGCGGCUAUAAACAGACCUCAGGCCCGAAGCGUGGCGGCACCUGCCGCCGGUGGUAAAAAAGAUCGGAAGAGCACACGUCU", "aptazyme ON/OFF ratio": 1.26},
      {"variant": "GGGUCGAUGUAUGAUAAUCGCGUGGAUAUGGCACGCAAGUUUCUACCGGGCACCGUAAAUGUCCGACUGGAGCCGUUCGGGCGGCUAUAAACAGACCUCAGGCCCGAAGCGUGGCGGCACCUGCCGCCGGUGGUAAAAAAGAUCGGAAGAGCACACGUCU", "aptazyme ON/OFF ratio": 1.36},
      {"variant": "GGGUCGAUGUAUUAUAAUCGCGUGGAUAUGGCACGCAAGUUUCUACCGGGCACCGUAAAUGUCCGACUGGAGCCGUUCGGGCGGCUAUAAACAGACCUCAGGCCCGAAGCGUGGCGGCACCUGCCGCCGGUGGUAAAAAAGAUCGGAAGAGCACACGUCU", "aptazyme ON/OFF ratio": 1.31},
      {"variant": "GGGUCGAUGGGCUAUAAUCGCGUGGAUAUGGCACGCAAGUUUCUACCGGGCACCGUAAAUGUCCGACUGGAGCCGUUCGGGCGGCUAUAAACAGACCUCAGGCCCGAAGCGUGGCGGCACCUGCCGCCGGUGGUAAAAAAGAUCGGAAGAGCACACGUCU", "aptazyme ON/OFF ratio": 1.27},
      {"variant": "GGGUCGAUGGGCGAUAAUCGCGUGGAUAUGGCACGCAAGUUUCUACCGGGCACCGUAAAUGUCCGACUGGAGCCGUUCGGGCGGCUAUAAACAGACCUCAGGCCCGAAGCGUGGCGGCACCUGCCGCCGGUGGUAAAAAAGAUCGGAAGAGCACACGUCU", "aptazyme ON/OFF ratio": 1.16},
      {"variant": "GGGUCGAUGGGCAAUAAUCGCGUGGAUAUGGCACGCAAGUUUCUACCGGGCACCGUAAAUGUCCGACUGGAGCCGUUCGGGCGGCUAUAAACAGACCUCAGGCCCGAAGCGUGGCGGCACCUGCCGCCGGUGGUAAAAAAGAUCGGAAGAGCACACGUCU", "aptazyme ON/OFF ratio": 1.12},
      {"variant": "GGGUCGAUGUAACAUAAUCGCGUGGAUAUGGCACGCAAGUUUCUACCGGGCACCGUAAAUGUCCGACUGGAGCCGUUCGGGCGGCUAUAAACAGACCUCAGGCCCGAAGCGUGGCGGCACCUGCCGCCGGUGGUAAAAAAGAUCGGAAGAGCACACGUCU", "aptazyme ON/OFF ratio": 1.41},
      {"variant": "GGGUCGAUGUAUCAUAAUCGCGUGGAUAUGGCACGCAAGUUUCUACCGGGCACCGUAAAUGUCCGACUGGAGCCGUUCGGGCGGCUAUAAACAGACCUCAGGCCCGAAGCGUGGCGGCACCUGCCGCCGGUGGUAAAAAAGAUCGGAAGAGCACACGUCU", "aptazyme ON/OFF ratio": 1.26},
      {"variant": "GGGUCGAUGUAGCAUAAUCGCGUGGAUAUGGCACGCAAGUUUCUACCGGGCACCGUAAAUGUCCGACUGGAGCCGUUCGGGCGGCUAUAAACAGACCUCAGGCCCGAAGCGUGGCGGCACCUGCCGCCGGUGGUAAAAAAGAUCGGAAGAGCACACGUCU", "aptazyme ON/OFF ratio": 1.2},
      {"variant": "GGGUCGAUGUCUCAUAAUCGCGUGGAUAUGGCACGCAAGUUUCUACCGGGCACCGUAAAUGUCCGACUGGAGCCGUUCGGGCGGCUAUAAACAGACCUCAGGCCCGAAGCGUGGCGGCACCUGCCGCCGGUGGUAAAAAAGAUCGGAAGAGCACACGUCU", "aptazyme ON/OFF ratio": 1.43},
      {"variant": "GGGUCGAUGUCACAUAAUCGCGUGGAUAUGGCACGCAAGUUUCUACCGGGCACCGUAAAUGUCCGACUGGAGCCGUUCGGGCGGCUAUAAACAGACCUCAGGCCCGAAGCGUGGCGGCACCUGCCGCCGGUGGUAAAAAAGAUCGGAAGAGCACACGUCU", "aptazyme ON/OFF ratio": 1.39},
      {"variant": "GGGUCGAUGUCGCAUAAUCGCGUGGAUAUGGCACGCAAGUUUCUACCGGGCACCGUAAAUGUCCGACUGGAGCCGUUCGGGCGGCUAUAAACAGACCUCAGGCCCGAAGCGUGGCGGCACCUGCCGCCGGUGGUAAAAAAGAUCGGAAGAGCACACGUCU", "aptazyme ON/OFF ratio": 1.08},
      {"variant": "GGGUCGAUGUCCAAUAAUCGCGUGGAUAUGGCACGCAAGUUUCUACCGGGCACCGUAAAUGUCCGACUGGAGCCGUUCGGGCGGCUAUAAACAGACCUCAGGCCCGAAGCGUGGCGGCACCUGCCGCCGGUGGUAAAAAAGAUCGGAAGAGCACACGUCU", "aptazyme ON/OFF ratio": 1.19},
      {"variant": "GGGUCGAUGUCGAAUAAUCGCGUGGAUAUGGCACGCAAGUUUCUACCGGGCACCGUAAAUGUCCGACUGGAGCCGUUCGGGCGGCUAUAAACAGACCUCAGGCCCGAAGCGUGGCGGCACCUGCCGCCGGUGGUAAAAAAGAUCGGAAGAGCACACGUCU", "aptazyme ON/OFF ratio": 1.3},
      {"variant": "GGGUCGAUGUCGGAUAAUCGCGUGGAUAUGGCACGCAAGUUUCUACCGGGCACCGUAAAUGUCCGACUGGAGCCGUUCGGGCGGCUAUAAACAGACCUCAGGCCCGAAGCGUGGCGGCACCUGCCGCCGGUGGUAAAAAAGAUCGGAAGAGCACACGUCU", "aptazyme ON/OFF ratio": 1.16},
      {"variant": "GGGUCGAUGUCGUAUAAUCGCGUGGAUAUGGCACGCAAGUUUCUACCGGGCACCGUAAAUGUCCGACUGGAGCCGUUCGGGCGGCUAUAAACAGACCUCAGGCCCGAAGCGUGGCGGCACCUGCCGCCGGUGGUAAAAAAGAUCGGAAGAGCACACGUCU", "aptazyme ON/OFF ratio": 1.23}
    ]}
  ]
}
